Laboratory results taken from article PMC2748308.

Assays:
Assay in all cases: purified protein
Settings in all cases: 50 mM Hepes pH 8.0
[1] = substrate: CC(=O)N[C@@H](CC(C)C)C(=O)O
[2] = substrate: CC(C)C[C@H](NC(=O)[C@H](C)N)C(=O)O
[3] = substrate: CC(C)C[C@H](NC=O)C(=O)O
[4] = substrate: C[C@H](N)C(=O)N[C@@H](Cc1ccccc1)C(=O)O
[5] = substrate: CC(=O)N[C@@H](Cc1ccc(O)cc1)C(=O)O
[6] = substrate: CC(=O)N[C@@H](Cc1ccccc1)C(=O)O
[7] = substrate: CC(C)C[C@H](NC(=O)[C@@H](N)CC(=O)O)C(=O)O
[8] = substrate: CC(C)[C@H](NC=O)C(=O)O
[9] = substrate: CC[C@H](C)[C@H](NC(C)=O)C(=O)O
[10] = substrate: CC[C@H](C)[C@H](NC=O)C(=O)O
[11] = substrate: CSCC[C@H](NC=O)C(=O)O
[12] = substrate: O=CN[C@@H](Cc1ccc(O)cc1)C(=O)O
[13] = substrate: O=CN[C@@H](Cc1ccccc1)C(=O)O

B1: Sgx9355e (Alteromonas macleodii) (protein)
chain: MSLDVDSKTLIHAGKLIDGKSDQVQSRISIVIDGNIISDIKKGFISSNDFEDYIDLRDHTVLPGLMDMHVHFGQEYQSKAQAPIKVEREMQAILATQHAYVTFKSGFTTVRQVGDSGLVAISLRDAINSGKLAGPRIFAAGKTIATTGGHADPTNGKAVDDYDYPVPEQGVVNGPYEVYAAVRQRYKDGADGIKITVTGGVLSVAKSGQNPQFTQEEVDAVVSAAKDYGMWVAVHAHGAEGMKRAIKAGVDSIEHGTFMDLEAMDLMIENGTYYVPTISAGEFVAEKSKIDNFFPEIVRPKAASVGPQISDTFRKAYEKGVKIAFGTDAGVQKHGTNWKEFVYMVENGMPAMKAIQSATMETAKLLRIEDKLGSIESGKLADLIAVKGNPIEDISVLENVDVVIKDGLLYE
[1]
  Km: 110 ± 10 µM
  kcat: 0.032 ± 0.01 s⁻¹
[2]
  Km: 250 ± 30 µM
  kcat: 0.34 ± 0.01 s⁻¹
  kcat/Km: 1300 ± 200 M⁻¹ s⁻¹
[3]
  Km: 260 ± 40 µM
  kcat: 0.072 ± 0.003 s⁻¹
  kcat/Km: 280 ± 40 M⁻¹ s⁻¹
[4]
  Km: 70 ± 10 µM
  kcat: 0.41 ± 0.01 s⁻¹
  kcat/Km: 5800 ± 600 M⁻¹ s⁻¹

B2: Cc0300 (Caulobacter vibrioides CB15) (protein)
chain: QATFVQAGRLLADPATGKVEIAKTLVLENGKVTRILDGYVAEPGGKVVDLKDSFVLPGLIDSHVHLTGQQNPNGRLQAVTQSPSDSAMVGAGFARKTLMAGFTTVANLGANSQAIFALREGVKRGDVAGPRILASGSSISVHGGHGDINGYSEDVMHALRPESVCSGADDCRRAVREQIWLGADLIKITATGGVLSNTAAGLAKQFSDAELAAIVESAHSMGRKVTAHAHGGDGINAFLKAGGDSIEHGTYLDNEGIALMKKSGAYLVPTLMAGDFVYRIASGPNNYFTPAQTAKALEAGPKMLDMVRRAHADGVKVAFGTDSGVSAHGDNAGEFALLVKAGMTPLEAIQTATVNAADHFSLSNEIGSLTPGKAADLIAVKGDPLKDVTELQRVTSVIKGGVVYK
[1]
  Km: 150 ± 30 µM
  kcat: 2.5 ± 0.1 s⁻¹
  kcat/Km: 16000 ± 3000 M⁻¹ s⁻¹
[5]
  Km: 170 ± 20 µM
  kcat: 4.6 ± 0.2 s⁻¹
  kcat/Km: 27000 ± 3000 M⁻¹ s⁻¹
[6]
  Km: 310 ± 30 µM
  kcat: 5.3 ± 0.2 s⁻¹
  kcat/Km: 17000 ± 2000 M⁻¹ s⁻¹
[7]
  Km: 220 ± 40 µM
  kcat: 29 ± 1 s⁻¹
  kcat/Km: 130000 ± 20000 M⁻¹ s⁻¹
[2]
  Km: 350 ± 40 µM
  kcat: 37 ± 2 s⁻¹
  kcat/Km: 110000 ± 10000 M⁻¹ s⁻¹
[3]
  Km: 130 ± 10 µM
  kcat: 39 ± 2 s⁻¹
  kcat/Km: 300000 ± 30000 M⁻¹ s⁻¹
[8]
  Km: 80 ± 10 µM
  kcat: 18 ± 1 s⁻¹
  kcat/Km: 220000 ± 30000 M⁻¹ s⁻¹
[9]
  Km: 140 ± 20 µM
  kcat: 2.6 ± 0.1 s⁻¹
  kcat/Km: 19000 ± 2000 M⁻¹ s⁻¹
[10]
  Km: 70 ± 10 µM
  kcat: 20 ± 1 s⁻¹
  kcat/Km: 290000 ± 40000 M⁻¹ s⁻¹
[11]
  Km: 410 ± 30 µM
  kcat: 12 ± 1 s⁻¹
  kcat/Km: 29000 ± 2000 M⁻¹ s⁻¹
[4]
  Km: 660 ± 50 µM
  kcat: 19 ± 1 s⁻¹
  kcat/Km: 29000 ± 3000 M⁻¹ s⁻¹
[12]
  Km: 90 ± 10 µM
  kcat: 33 ± 1 s⁻¹
  kcat/Km: 390000 ± 40000 M⁻¹ s⁻¹
[13]
  Km: 260 ± 30 µM
  kcat: 52 ± 2 s⁻¹
  kcat/Km: 200000 ± 20000 M⁻¹ s⁻¹
